Measured values reported in article PMC4160250.
pKd: −log10 of the molar value.

Assays:
[1] = target: His-tagged DC-UbP (human) (UniProt Q8WUN7); experiment: NMR titration; 15N-labelled DC-UbP (100 uM) titrated stepwise with unlabelled USP5, UbE1, FH or SCCH; 1H-15N HSQC, 20 mM phosphate, 50 mM NaCl, pH 6.5, 298 K
[2] = target: UbP_C (C-terminal part of DC-UbP, residues 129-234), His-tagged (human) (UniProt Q8WUN7); experiment: NMR titration; 15N-labelled UbP_C (200 uM; 150 uM for the affinity) titrated with USP5_UBA12 or USP5_ZnF; 1H-15N HSQC, 20 mM phosphate, 50 mM NaCl, pH 6.5, 298 K
UbP_C (C-terminal part of DC-UbP, residues 129-234), His-tagged (human), sequence (Q8WUN7 129-234): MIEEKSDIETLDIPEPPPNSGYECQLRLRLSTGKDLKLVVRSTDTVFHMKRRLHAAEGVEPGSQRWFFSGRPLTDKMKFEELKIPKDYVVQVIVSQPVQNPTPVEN

His-tagged DC-UbP (human), sequence (Q8WUN7 whole entry, the tested form may be a part): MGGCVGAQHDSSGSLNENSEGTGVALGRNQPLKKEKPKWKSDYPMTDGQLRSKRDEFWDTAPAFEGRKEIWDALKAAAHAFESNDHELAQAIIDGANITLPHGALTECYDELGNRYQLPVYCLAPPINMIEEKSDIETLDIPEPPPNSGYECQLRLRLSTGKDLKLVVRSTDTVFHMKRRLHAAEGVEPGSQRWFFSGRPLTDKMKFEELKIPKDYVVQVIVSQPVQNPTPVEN

## USP5, recombinant, purified (from UniProt P45974 1-858) (enzyme)
[1]
  mean relative peak intensity of the UBD domain of DC-UbP at 1:1 molar ratio (free DC-UbP = 1): 0.56
  mean relative peak intensity of the UbL domain of DC-UbP at 1:1 molar ratio (free DC-UbP = 1): 0.27

## USP5_UBA12 (tandem UBA domains of USP5, residues 625-749) (from UniProt P45974 625-749) (domain or fragment)
[2]
  pKd: 3.40
